Data as given in paper PMC11612968, “Endo-bind-n-seq: identifying RNA motifs of RNA binding proteins isolated from endogenous sources”.

Biological target: T1, GST-ZC3H7B(415-956) (UniProt Q9UGR2 415-956)
T1 sequence: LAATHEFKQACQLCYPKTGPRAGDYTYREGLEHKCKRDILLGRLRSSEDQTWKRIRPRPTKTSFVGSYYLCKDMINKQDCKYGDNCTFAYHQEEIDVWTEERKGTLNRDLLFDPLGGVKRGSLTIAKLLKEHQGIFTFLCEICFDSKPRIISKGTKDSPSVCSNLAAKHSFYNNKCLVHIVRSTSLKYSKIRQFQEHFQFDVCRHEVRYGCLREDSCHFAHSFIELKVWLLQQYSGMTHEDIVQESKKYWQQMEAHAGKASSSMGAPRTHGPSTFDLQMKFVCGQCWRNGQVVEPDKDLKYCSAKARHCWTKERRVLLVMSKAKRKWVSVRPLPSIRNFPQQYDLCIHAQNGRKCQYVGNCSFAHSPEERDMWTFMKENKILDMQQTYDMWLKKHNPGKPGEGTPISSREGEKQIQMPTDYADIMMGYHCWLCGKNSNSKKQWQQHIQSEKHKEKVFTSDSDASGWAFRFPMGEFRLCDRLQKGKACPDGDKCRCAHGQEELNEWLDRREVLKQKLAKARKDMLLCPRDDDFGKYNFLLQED
Assay: filter binding; Filter binding: 50 mM Tris-HCl pH 8.0, 150 mM NaCl, 5% glycerol, 20 C; EMSA: 20 mM HEPES-KOH pH 7.4, 100 mM NaCl, 1 mM MgCl2, 0.1% Tween20, 40 mM EDTA, 10% glycerol, 70 C; competition: 25 mM Tris-HCl pH 7.5, 150 mM KCl, 3 mM MgCl2, 0.01% NP-40, 1 mg/ml BSA, 1 mM DTT, 5% glycerol, RT
Conditions: protein: recombinant; tags: N-terminal GST (pGEX-4T-1, TEV site); label: 5' 32P

B1: ZC3H7B motif RNA (AUAG) (ssRNA)
RNA: AUAGUGUAGU
B1: binds.
